The text below walks through data of patent publication US20200405833A1 (AFFIMED, published 2020).

What is called EC50 (read off the curve) is the concentration needed to bring the measured effect to its halfway point. The low end stands for higher potency in that assay, the high end for lower potency in that assay.

Assay [1] concerns the target T1, human EGFR on cells (human, UniProt P00533 25-1210). Briefly: cell-based or functional assay.
The target of another assay is T2, EGFRvIII on CHO cells (human, UniProt P00533 25-1210).
T2 construct: whole, on cells; the exon 2-7 deletion must be applied; also called EGFRvIII+ CHO cells
Briefly: flow cytometry on CHO cells expressing recombinant EGFRvIII, 37°C; apparent affinity.

In assay [2] the target is T1, human EGFR on cells. The assay is described as follows: cell-based or functional assay. This is another data set of the same source.
The target in another assay is T3, EGFR-antigen (ELISA).
T3 construct: also called EGFR-Fc
Briefly: ELISA, coated EGFR-Fc antigen, tandem diabody titrated (His-tagged analyte, Penta-HIS-HRP per paragraph 126). For orientation: ELISA stands for enzyme-linked immunosorbent assay.

Assay [3] has as its target T4, CD16A on primary human NK-cells (human, UniProt P08637 17-254).
T4 construct: whole, on cells; also called FcγRIIIA
The assay is described as follows: flow cytometry on primary human NK-cells, 37°C, without IgG; mean of 2 experiments. On the technique in general: A flow cytometer gives signals particle by particle.
Description: (§1) After the last staining step, the cells were washed again and resuspended in 0.2 mL of FACS buffer containing 2 μg/mL propidium iodide (PI) (Sigma, cat.: P4170) in order to exclude dead cells. The fluorescence of 2-5×10³ living cells was measured using a Millipore Guava EasyCyte flow cytometer (Merck Millipore, Schwalbach, Germany). Mean fluorescence intensities of the cell samples were calculated using Incyte software (Merck Millipore, Schwalbach, Germany). After subtracting the fluorescence intensity values of the cells stained with the secondary and tertiary reagents alone, the values were used for non-linear regression analysis using the GraphPad Prism software (GraphPad Prism version 6.00 for Windows, GraphPad Software, La Jolla Calif. USA). For the calculation of KD, the equation for one-site-binding (hyperbola) was used.
(§2) To assess the impact of physiological concentrations of human IgG on the binding capacity of bispecific EGFR/CD16A antigen-binding proteins, binding assays with several bispecific EGFR/CD16A antigen-binding proteins on primary human NK-cells were performed in presence or absence of 10 mg/mL polyclonal human IgG as exemplarily shown in FIG. 10.

Assay [4] concerns the target T5, Human FcRn (FCGRT/B2M) (human, UniProt P55899 24-297; P61769 21-119, biotin-labelled (site not stated)).
T5 construct: Purchased; also called FcRn (FCGRT/B2M), His-Tag, Biotin-Labeled, (Human) HiP Cat #71283
Briefly: SPR (Biacore T200), pH 6.0, biotinylated FcRn captured, multi cycle kinetics. (In general: In SPR one partner is held on a chip, and binding of the other changes the refractive index at the surface.)

The target of assay [5] is T6, Mouse FcRn (FCGRT/B2M) (mouse, UniProt Q61559 22-297; P01887 21-119, biotin-labelled (Avi-Tag)).
T6 construct: Purchased; also called murine FcRn; murine FcRn receptor
T6 sequence (looked up): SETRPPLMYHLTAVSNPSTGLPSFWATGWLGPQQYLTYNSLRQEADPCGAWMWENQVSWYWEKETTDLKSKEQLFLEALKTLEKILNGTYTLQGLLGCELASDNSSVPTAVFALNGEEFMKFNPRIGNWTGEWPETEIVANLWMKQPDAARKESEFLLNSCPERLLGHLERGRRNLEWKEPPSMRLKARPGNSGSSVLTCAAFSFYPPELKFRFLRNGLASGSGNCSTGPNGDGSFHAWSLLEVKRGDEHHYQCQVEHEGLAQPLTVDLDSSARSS
T6 sequence (b2m, looked up): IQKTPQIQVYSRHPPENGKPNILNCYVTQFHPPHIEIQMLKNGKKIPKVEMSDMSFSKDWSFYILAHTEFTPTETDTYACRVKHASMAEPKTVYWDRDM
The description is as above.
Description: (§3) Binding of EGFR/CD16A antigen-binding proteins to FcRn (human, cynomolgus, murine) was measured on a Biacore T200 Instrument at 25° C. using PBS-T buffer pH 6.0 as running buffer and for dilution (1×Gibco PBS, 0.005% Tween20, titrated to pH 6.0 using 4 M HCl). For this purpose, a Multi Cycle Kinetic experiments was performed using Biotin CAPture Kit (GE Healthcare). For activation of the sensor surface, Biotin CAPture reagent (GE Healthcare) was injected to Flow Cells Fc 1-4 (100 sec, 5 μL/min) resulting in a response of 2100 RU-2800 RU. Biotinylated FcRn of different species were injected to Flow Cell Fc 2 (5 μL/min) resulting in a response of about 8-15 RU. A dilution series of EGFR/CD16A antigen-binding proteins was in (pH 7.4) as running buffer and for dilution. […] Chip was regenerated using Regeneration solution (GE Healthcare) (10 μL/min, Flow cells 1-4, 120 sec). Sensorgrams are referenced by subtraction of zero concentration cycle and subtraction of signals in reference channel Fc 1 (Fc 2-1, Fc 3-1, Fc 4-1). […] Chip was regenerated using Regeneration solution (GE Healthcare) (10 μL/min, Flow cells 1-4, 120 sec). […] Binding kinetics were evaluated by fitting data to 1:1 Binding Model (Rmax and RI locally fitted) using Biacore T200 Evaluation Software.

The target in assay [6] is T7, Cynomolgus FcRn (FCGRT/B2M) (cynomolgus, UniProt Q8SPV9 24-297; Q8SPW0 21-119, biotin-labelled (Avi-Tag)).
T7 construct: Purchased; also called FcRn (FCGRT/B2M), Avi-Tag, Biotin-Labeled, (Cynomolgus) Acro Cat #FCM-C82W5
The assay is described as above.
Description: as §3

Assay [7] has as its target T1, human EGFR on cells. The assay is described as follows: flow cytometry on EGFR-expressing A-431 cells, 37° C.
Assay [8] addresses T1, human EGFR on cells. The assay is described as follows: flow cytometry on CHO cells expressing recombinant human EGFR, 37°C; apparent affinity.
Description: (§4) After last staining step, the cells were washed again and resuspended in 0.2 mL of FACS buffer containing 2 μg/mL propidium iodide (PI) (Sigma, cat.: P4170) in order to exclude dead cells. The fluorescence of 2-5×10³ living cells was measured using a Beckman-Coulter FC500 MPL flow cytometer using the MXP software (Beckman-Coulter, Krefeld, Germany) or a Millipore Guava EasyCyte flow cytometer (Merck Millipore, Schwalbach, Germany). Mean fluorescence intensities of the cell samples were calculated using CXP software (Beckman-Coulter) or Incyte software (Merck Millipore, Schwalbach, Germany). After subtracting the fluorescence intensity values of the cells stained with the secondary and tertiary reagents alone, the values were used for non-linear regression analysis using the GraphPad Prism software (GraphPad Prism version 6.00 for Windows, GraphPad Software, La Jolla Calif. USA). For the calculation of KD, the equation for one-site-binding (hyperbola) was used.
The target in assay [9] is T1, human EGFR on cells. Briefly: flow cytometry on HCT-116 cells, 37°C; mean of 2 experiments.
Description: After the last staining step, the cells were washed again and resuspended in 0.2 mL of FACS buffer containing 2 μg/mL propidium iodide (PI) (Sigma, cat.: P4170) in order to exclude dead cells. The fluorescence of 2-5×10³ living cells was measured using a Millipore Guava EasyCyte flow cytometer (Merck Millipore, Schwalbach, Germany). Mean fluorescence intensities of the cell samples were calculated using the Incyte software (Merck Millipore, Schwalbach, Germany). After subtracting the fluorescence intensity values of the cells stained with the secondary and tertiary reagents alone, the values were used for non-linear regression analysis using the GraphPad Prism software (GraphPad Prism version 6.00 for Windows, GraphPad Software, La Jolla Calif. USA). For the calculation of KD, the equation for one-site-binding (hyperbola) was used.
The target of the next assay is T8, CD16A-antigen (ELISA).
T8 construct: also called CD16A-Fc
The assay is described as follows: ELISA, coated CD16A-Fc antigen, tandem diabody titrated (His-tagged analyte, Penta-HIS-HRP per paragraph 126).

Assay [10] addresses T1, human EGFR on cells. The assay is described as follows: cell-based or functional assay. This is another data set of the same source.
Assay [11] deals with T4, CD16A on primary human NK-cells. Briefly: flow cytometry on primary human NK-cells, 37° C., with 10 mg/mL gammanorm (polyclonal human IgG).
Description: as §1, §2
Assay [12] has the same target. Briefly: flow cytometry on primary human NK-cells, 37°C, with 10 mg/mL polyclonal human IgG (Gammanorm); mean of 2 experiments.
Description: as §1, §2
Assay [13] concerns the target T5, Human FcRn (FCGRT/B2M). The assay is described as follows: SPR (Biacore T200), pH 6.0, biotinylated FcRn captured, multi cycle kinetics, 1:1 model.
Description: as §3
For assay [14], the target named is T6, Mouse FcRn (FCGRT/B2M). The description is as above.
Description: as §3
The target of the next assay is T9, huCD16A^RV-His (human).
T9 construct: soluble, His-tagged; also called CD16-His antigen
The assay is described as follows: ELISA, coated EGFR/CD16A scFv-IgAb, soluble huCD16A^RV-His titrated (the concentration axis is that of the antigen), Penta-HIS-HRP per paragraph 126.

The target in assay [15] is T7, Cynomolgus FcRn (FCGRT/B2M). Briefly: SPR (Biacore T200), pH 6.0, biotinylated FcRn captured, multi cycle kinetics, 1:1 model.
Description: as §3
The target of a further assay is huCD16A (human, UniProt P08637 17-208, limits assumed). The assay is described as follows: RIA assay on huCD16A with radioiodinated scFv-IgAB_02; RIA assay on huCD16A.
The target of assay [16] is T1, human EGFR on cells. Briefly: cell-based or functional assay. The source holds these as a separate data set.
In the next assay the target is T10, EGFR-mFc.
T10 construct: Coated at 2.5 µg/mL in ELISA; also called monomeric EGFR-mFc; EGFR-mFc antigen
The assay is described as follows: ELISA, coated EGFR-mFc antigen, scFv-IgAb titrated, bound construct detected with biotinylated CD16-Fc and streptavidin-HRP.

Assay [17] concerns the target T1, human EGFR on cells. The assay is described as follows: saturation binding assay on A-431 cells with radioiodinated scFv-IgAB_02; saturation binding assay on A-431 cells.

T5 sequence (P55899 24-297 limits assumed, chain 1 of 2): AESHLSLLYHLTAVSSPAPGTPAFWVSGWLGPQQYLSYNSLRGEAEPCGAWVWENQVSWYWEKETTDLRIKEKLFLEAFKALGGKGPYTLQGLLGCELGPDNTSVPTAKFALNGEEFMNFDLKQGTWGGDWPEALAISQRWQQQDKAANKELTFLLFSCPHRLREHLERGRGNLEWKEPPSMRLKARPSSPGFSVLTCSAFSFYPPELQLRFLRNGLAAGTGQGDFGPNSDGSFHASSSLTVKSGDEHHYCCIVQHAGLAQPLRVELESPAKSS
T5 sequence (P61769 21-119 limits assumed, chain 2 of 2): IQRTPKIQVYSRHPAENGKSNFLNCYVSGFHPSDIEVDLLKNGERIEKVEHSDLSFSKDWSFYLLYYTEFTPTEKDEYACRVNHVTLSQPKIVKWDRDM
T7 sequence (Q8SPV9 24-297 limits assumed, chain 1 of 2): as the sequence (P55899 24-297 limits assumed, chain 1 of 2) above, with N39D, E44Q, G99S, S189G, S190N, L217M, S269T counted along it
T7 sequence (Q8SPW0 21-119 limits assumed, chain 2 of 2): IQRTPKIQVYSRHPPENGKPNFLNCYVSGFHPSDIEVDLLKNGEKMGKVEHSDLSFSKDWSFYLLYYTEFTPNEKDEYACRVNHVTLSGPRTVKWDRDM
Description for CD16A-antigen (ELISA): (§5) 96-well ELISA plates (Immuno MaxiSorp; Nunc) were coated overnight at 4° C. with recombinant antigen or antibodies in 100 mM Carbonate-bicarbonate buffer. […] After a blocking step with 3% (w/v) skim milk powder (Merck) dissolved in PBS, serial dilutions of the different antibodies or soluble antigens in PBS containing 0.3% (w/v) skim milk powder were incubated on the plates for 1.5 h at room temperature. After washing three times with 300 μL per well of PBS containing 0.1% (v/v) Tween 20, plates were incubated with detection antibodies for 1 h at room temperature. For the detection of His-tagged analytes, Penta-HIS-HRP (Qiagen) was used at 1:3000 dilution. […] After washing three times with 300 μL per well of PBS containing 0.1% (v/v) Tween 20, plates were incubated with Tetramethylbenzidine (TMB) substrate (Seramun) until colour development was clearly visible. The reaction was stopped through the addition of 100 μL per well of 0.5 M H₂SO₄. The absorbance was measured at 450 nm using a multilabel plate reader (Victor, Perkin Elmer).
Description for EGFR-antigen (ELISA): as §5
Description for EGFR-mFc: as §5
Description for EGFRvIII on CHO cells: as §4
Description for huCD16A^RV-His: as §5

B1: EGFR/CD16A tandem diabody (bispecific antibody)
chain: QVQLQESGPGLVKPSETLSLTCTVSGGSVSSGSYYWSWIRQPPGKGLEWIGYIYYSGSTNYNPSLKSRVTISVDTSKNQFSLKLSSVTAADTAVYYCARNPISIPAFDIWGQGTMVTVSSGGSGGSGGSSYVLTQPSSVSVAPGQTATISCGGHNIGSKNVHWYQQRPGQSPVLVIYQDNKRPSGIPERFSGSNSGNTATLTISGTQAMDEADYYCQVWDNYSVLFGGGTKLTVLGGSGGSQVQLVQSGAEVKKPGESLKVSCKASGYTFTSYYMHWVRQAPGQGLEWMGIINPSGGSTSYAQKFQGRVTMTRDTSTSTVYMELSSLRSEDTAVYYCARGSAYYYDFADYWGQGTLVTVSSGGSGGSGGSQPVLTQPPSVSVAPGKTARITCGGNNIGSKSVHWYQQKPGQAPVLVIYYDSDRPSGIPERFSGSNSGNTATLTISRVEAGDEADYYCQVWDTSSDHVLFGGGTKLTVLAAAGSHHHHHH
notes: no Fc; also called Tandem diaody
B1: in the assay with human EGFR on cells [1], the “EC50 [pM] mean, 4 h calcein-release cytotoxicity, A-431 target cells, human NK-cells E:T 5:1” value is 1.1 pM. Further, the Kd with EGFRvIII on CHO cells was 0.5 nM; in assay [3], 7.7 nM; in the assay with human EGFR on cells [8] it was 0.7 nM; in the assay with human EGFR on cells [9] it was 0.3 nM; in assay [12], 8.8 nM. The “EC50, inhibition of EGF-induced EGFR phosphorylation (phospho-EGFR ELISA, A-431 cells), Exp.1” value with human EGFR on cells [2] is greater than 100 µg/mL. Also, in the assay with human EGFR on cells [2], the “EC50, inhibition of EGF-induced EGFR phosphorylation (phospho-EGFR ELISA, A-431 cells), Exp.2” value is greater than 100 µg/mL. Also, the half-maximal effective concentration (EC50 (read off the curve)) is roughly 0.02 µg/mL in the assay with EGFR-antigen (ELISA), roughly 2 nM in the assay with human EGFR on cells [7], roughly 0.03 µg/mL with CD16A-antigen (ELISA) and roughly 10 nM in assay [11]. For the same molecule, the binding result (with Human FcRn (FCGRT/B2M) [4]; in the assay with Mouse FcRn (FCGRT/B2M) [5]; in [6]) was “no binding (tested: up to 3000 nM)” in each case. For the same molecule, the “EC50 [pM] mean, 4 h calcein-release cytotoxicity, HCT-116 target cells, human NK-cells E:T 5:1” value with human EGFR on cells [10] was 1.5 pM.

B2: scFv-IgAb_02 (bispecific antibody)
heavy: QVQLVQSGAEVKKPGESLKVSCKASGYTFTSYYMHWVRQAPGQGLEWMGIINPSGGSTSYAQKFQGRVTMTRDTSTSTVYMELSSLRSEDTAVYYCARGSAYYYDFADYWGQGTLVTVSSASTKGPSVFPLAPSSKSTSGGTAALGCLVKDYFPEPVTVSWNSGALTSGVHTFPAVLQSSGLYSLSSVVTVPSSSLGTQTYICNVNHKPSNTKVDKKVEPKSCDKTHTCPPCPAPEFEGGPSVFLFPPKPKDTLMISRTPEVTCVVVAVSHEDPEVKFNWYVDGVEVHNAKTKPREEQYNSTYRVVSVLTVLHQDWLNGKEYKCKVSNKALPAPIEKTISKAKGQPREPQVYTLPPSREEMTKNQVSLTCLVKGFYPSDIAVEWESNGQPENNYKTTPPVLDSDGSFFLYSKLTVDKSRWQQGNVFSCSVMHEALHNHYTQKSLSLSPGGGGGSGGGGSQVQLQESGPGLVKPSETLSLTCTVSGGSVSSGSYYWSWIRQPPGKGLEWIGYIYYSGSTNYNPSLKSRVTISVDTSKNQFSLKLSSVTAADTAVYYCARNPISIPAFDIWGQGTMVTVSSGGSGGSGGSGGSGGSGGSQPVLTQPPSVSVAPGKTARITCGGNNIGSKSVHWYQQKPGQAPVLVIYYDSDRPSGIPERFSGSNSGNTATLTISRVEAGDEADYYCQVWDTSSDHVLFGGGTKLTVL
light: SYVLTQPSSVSVAPGQTATISCGGHNIGSKNVHWYQQRPGQSPVLVIYQDNKRPSGIPERFSGSNSGNTATLTISGTQAMDEADYYCQVWDNYSVLFGGGTKLTVLGQPKAAPSVTLFPPSSEELQANKATLVCLISDFYPGAVTVAWKADSSPVKAGVETTTPSKQSNNKYAASSYLSLTPEQWKSHRSYSCQVTHEGSTVEKTVAPTECS
notes: Tetravalent, bispecific: anti-CD16A Fab arms, silenced human IgG1 Fc, anti-EGFR scFv fused C-terminally to CH3; also called EGFR/CD16A scFv-IgAb; scFv-IgAb_2
As to B2, the “EC50 [pM] mean, 4 h calcein-release cytotoxicity, A-431 target cells, human NK-cells E:T 5:1” value with human EGFR on cells [1] is 2.1 pM. The Kd with Human FcRn (FCGRT/B2M) [13] came to 430 nM; with Mouse FcRn (FCGRT/B2M) [14], 180 nM; in assay [3], 8 nM; in [15], 842 nM; with huCD16A, 0.729 nM; in the assay with human EGFR on cells [17], 6.98 nM. The Kd in assay [12] came out at 13.1 nM. For the same molecule, the figures for the concentration for a half-maximal effect (EC50 (read off the curve)) in the assay with huCD16A^RV-His, with human EGFR on cells [7] and with EGFR-mFc were roughly 1 nM, roughly 2 nM and roughly 0.02 µg/mL, respectively. The “EC50 [µg/mL] on A-431 cells, inhibition of EGF-stimulated EGFR phosphorylation (phospho-EGFR ELISA)” value with human EGFR on cells [16] is 1520 µg/mL. Also, the “EC50 [µg/mL] on A-549 cells, inhibition of EGF-stimulated EGFR phosphorylation (phospho-EGFR ELISA)” value in the assay with human EGFR on cells [16] is 478 µg/mL. The “EC50 [pM] mean, 4 h calcein-release cytotoxicity, HCT-116 target cells, human NK-cells E:T 5:1” value with human EGFR on cells [10] was 4.3 pM.
